The target in this experiment is T1, SP62 (biotin-labelled peptide containing the 2F5 epitope sequence) (HIV-1, biotin-labelled (position not given)).
T1 construct: The results speak of the 'MPER peptide' or 'peptide'; also called 2F5多肽; gp41 MPER多肽
T1 peptide: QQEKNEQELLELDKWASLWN
Briefly: ELISA.

B1: A2 (light-chain shuffled clone, Fab on phage) (Fab, V domains shown)
VH: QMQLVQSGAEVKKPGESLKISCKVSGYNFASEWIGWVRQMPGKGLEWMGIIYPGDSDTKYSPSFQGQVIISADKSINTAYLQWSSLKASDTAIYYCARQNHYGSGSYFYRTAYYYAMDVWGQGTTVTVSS
VL: DIQLTQSPSSLSASLGDKVTITCRASQHIKKYLNWYQQKPGKAPKLLIYGALNLQSGVPSRFSGRGSGTDFTLTISSLQPEDFATYYCQQSYSTPFTFGPGTKVDIKR
With B1, the binding result is listed as “binds”.

Values taken from patent CN102731650A (SICHUAN HUIYU PHARMACEUTICAL CO LTD, dated 2012).
